Changes are numbered by the printed parent chain. In names and notes the source's numbering stands. Blank lines part the entries; values can stand above or below the binder they belong to.
Columns and labels:
[1] = target: T1, human FcγRI extracellular domain (human, UniProt P12314 16-292); assay: SPR at 25 C, antibody captured on Protein A, FcγR ECD analyte
T1 construct: extracellular domain; also called CD64
Protocol: (§1) Biacore® T100 instrument and Biacore® 3000 (GE Healthcare, Piscataway, NJ), Biacore® reagents and Scrubber2 Biacore® Evaluation Software (Biologics 2008) are used for the SPR analysis of antibody binding. A CM5 chip (Biacore® P/N BR-1006-68) is prepared using the manufacturer's EDC/NHS amine coupling method (Biacore® P/N BR-1000-50). Briefly, the surfaces of all 4 FCs are activated by injecting a 1:1 mixture of EDC/NHS for 7 minutes at 10 μL/minute. Protein A (Calbiochem P/N 539202) is diluted to 100 μg/mL in 10 mM acetate, pH 4.5 buffer and immobilized for approximately 400 RU onto all 4 flow cells by 7 minute injection at a flow rate of 10 μL/minute. Un-reacted sites are blocked with a 7-minute injection of ethanolamine at 10 μL/minute. Injections of 2×10 μL of glycine pH 1.5 are used to remove any non-covalently associated protein.
Reference-subtracted data is collected as FC2-FC1, FC3-FC1, and FC4-FC1. The measurements are obtained at 25° C. The affinity (KD) is calculated using either steady state equilibrium analysis with the Scrubber 2 Biacore® Evaluation Software or a “1:1 (Langmuir) binding” model in BIA Evaluation.

[2] = target: T2, human FcγRIIb extracellular domain (human, UniProt P31994 43-217); assay: SPR at 25 C, antibody captured on Protein A, FcγR ECD analyte, steady state
T2 construct: extracellular domain; also called CD32b
T2 sequence (looked up): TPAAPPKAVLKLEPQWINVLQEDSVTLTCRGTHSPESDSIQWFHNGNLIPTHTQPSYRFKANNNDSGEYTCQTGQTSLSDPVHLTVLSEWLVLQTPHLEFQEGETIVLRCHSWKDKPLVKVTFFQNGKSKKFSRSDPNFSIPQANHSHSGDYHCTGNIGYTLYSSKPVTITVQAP
Protocol: as §1
(§2) For FcγRIIa, FcγRIIb, and FcγRIIIa binding, antibodies are diluted to […] in running buffer, and approximately 500 RU of each variant is captured in flow cells 2 through 4 (RUcaptured). FC1 is the reference flow cell. Fcγ receptor ECDs are diluted to 10 μM in running buffer and then 2 fold serially diluted in running buffer to 39 nM. Duplicate injections of each concentration are injected over all FCs at 40 μL/minute for 60 seconds followed by a 120 second dissociation phase. Regeneration is performed by injecting 15 μL of 10 mM glycine pH 1.5 at 30 μL/min over all FCs.
(§3) Reference-subtracted data is collected as FC2-FC1, FC3-FC1, and FC4-FC1. The measurements are obtained at 25° C. The affinity (KD) is calculated using the steady state equilibrium analysis with the Scrubber 2 Biacore® Evaluation Software.

[3] = target: T3, human FcγRIIIA_158V extracellular domain (human, UniProt P08637 17-208); assay: as above
T3 construct: extracellular domain; Allotype with Val at 158 (numbering as in the label); also called CD16a
T3 sequence (P08637 17-208 F176V): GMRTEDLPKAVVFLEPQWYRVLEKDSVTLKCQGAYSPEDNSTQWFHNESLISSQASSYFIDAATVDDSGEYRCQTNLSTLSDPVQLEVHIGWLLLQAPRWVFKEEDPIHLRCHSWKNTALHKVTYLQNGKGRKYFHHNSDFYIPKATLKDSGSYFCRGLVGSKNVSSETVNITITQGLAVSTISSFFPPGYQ
Protocol: as §1, §2, §3

[4] = target: T4, human FcγRIIA_131R extracellular domain (human, UniProt P12318 34-217); assay: as above
T4 construct: extracellular domain; also called CD32a
T4 sequence (looked up): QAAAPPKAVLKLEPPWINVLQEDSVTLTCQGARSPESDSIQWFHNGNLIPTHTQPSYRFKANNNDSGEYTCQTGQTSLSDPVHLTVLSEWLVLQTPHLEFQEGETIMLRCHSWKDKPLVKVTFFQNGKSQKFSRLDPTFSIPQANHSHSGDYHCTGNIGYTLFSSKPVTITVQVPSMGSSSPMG
Protocol: as §1, §2, §3

[5] = target: T5, human FcγRIIA_131H extracellular domain (human, UniProt P12318 34-217); assay: as above
T5 construct: extracellular domain; also called CD32a
T5 sequence (looked up): T4 sequence (looked up) with R134H
Protocol: as §1, §2, §3

[6] = target: T6, cynomolgus monkey CD200R (purified soluble receptor, SPR analyte) (cynomolgus monkey, UniProt Q8TD46 25-265 (human entry)); assay: SPR at 37 C, antibody captured on Protein A, receptor analyte, 1:1 model; n=3
T6 construct: Purified by IMAC and size exclusion chromatography; also called cyno CD200R
T6 chain: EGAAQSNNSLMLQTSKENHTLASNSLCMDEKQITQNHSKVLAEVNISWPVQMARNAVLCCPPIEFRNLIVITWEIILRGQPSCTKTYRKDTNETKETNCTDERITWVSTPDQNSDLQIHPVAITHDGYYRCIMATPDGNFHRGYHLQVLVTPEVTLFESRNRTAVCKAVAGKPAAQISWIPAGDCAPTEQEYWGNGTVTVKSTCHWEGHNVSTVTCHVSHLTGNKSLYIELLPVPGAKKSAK

[7] = target: T7, human CD200R (purified soluble receptor, SPR analyte) (human, UniProt Q8TD46 29-265, limits assumed); assay: as above
T7 construct: Purified by IMAC and size exclusion chromatography; also called hCD200R; human CD200 receptor
T7 chain: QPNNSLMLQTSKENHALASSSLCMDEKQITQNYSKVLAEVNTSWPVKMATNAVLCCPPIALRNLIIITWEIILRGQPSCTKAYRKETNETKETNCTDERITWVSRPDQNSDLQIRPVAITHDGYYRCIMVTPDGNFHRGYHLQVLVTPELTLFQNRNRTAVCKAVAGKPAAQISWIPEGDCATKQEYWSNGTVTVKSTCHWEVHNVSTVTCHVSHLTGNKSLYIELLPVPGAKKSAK

[8] = target: T8, human CD200R expressed on cells (human, UniProt Q8TD46 25-348); assay: cell-based or functional assay
T8 chain: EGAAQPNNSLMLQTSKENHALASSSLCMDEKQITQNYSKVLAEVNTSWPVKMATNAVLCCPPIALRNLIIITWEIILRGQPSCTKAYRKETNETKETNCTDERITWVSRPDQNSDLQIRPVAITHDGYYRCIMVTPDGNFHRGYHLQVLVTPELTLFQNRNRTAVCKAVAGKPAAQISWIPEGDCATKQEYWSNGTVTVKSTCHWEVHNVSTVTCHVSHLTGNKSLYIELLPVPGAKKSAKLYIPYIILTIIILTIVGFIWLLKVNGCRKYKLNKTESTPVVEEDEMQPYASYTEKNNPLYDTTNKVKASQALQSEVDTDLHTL

[9] = target: T9, human FcγRIIIA_158F extracellular domain (human, UniProt P08637 17-208); assay: SPR at 25 C, antibody captured on Protein A, FcγR ECD analyte, steady state
T9 construct: extracellular domain; Allotype with Phe at 158 (numbering as in the label); also called CD16a
T9 sequence (P08637 17-208): as the sequence (P08637 17-208 F176V) above, with V160F counted along it
Protocol: as §1, §2, §3

T1 sequence (P12314 16-292): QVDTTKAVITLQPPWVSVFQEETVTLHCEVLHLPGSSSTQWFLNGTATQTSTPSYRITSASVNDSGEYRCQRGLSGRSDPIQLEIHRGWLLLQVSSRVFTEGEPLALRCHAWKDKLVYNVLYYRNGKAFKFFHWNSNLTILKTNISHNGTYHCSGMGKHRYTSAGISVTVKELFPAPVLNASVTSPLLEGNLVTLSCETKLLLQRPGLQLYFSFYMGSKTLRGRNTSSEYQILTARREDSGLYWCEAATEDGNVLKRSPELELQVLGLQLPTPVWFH

Kd [1]: 0.369 nM
Kd [2]: 2200 nM
Kd [3]: 4300 nM
Kd [4]: 1700 nM
Kd [5]: 3900 nM
B1: Antibody I-4P (antibody, human IgG4 S228P, kappa)
heavy: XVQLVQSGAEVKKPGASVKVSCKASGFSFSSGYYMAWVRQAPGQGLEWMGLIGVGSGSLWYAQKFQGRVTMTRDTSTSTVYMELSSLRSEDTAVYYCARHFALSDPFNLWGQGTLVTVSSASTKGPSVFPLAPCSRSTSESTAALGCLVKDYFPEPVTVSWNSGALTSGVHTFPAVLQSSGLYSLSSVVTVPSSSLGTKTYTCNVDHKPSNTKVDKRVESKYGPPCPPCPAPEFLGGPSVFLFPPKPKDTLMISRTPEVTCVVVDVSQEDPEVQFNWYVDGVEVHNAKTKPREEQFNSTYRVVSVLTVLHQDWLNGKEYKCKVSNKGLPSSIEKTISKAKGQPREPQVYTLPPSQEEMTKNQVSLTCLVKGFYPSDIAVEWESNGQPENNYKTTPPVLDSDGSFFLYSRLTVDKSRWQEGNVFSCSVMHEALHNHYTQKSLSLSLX
light: EIVLTQSPDFQSVTPKEKVTITCQASESIDSYLLWYQQKPDQSPKLLIKQASTLASGVPSRFSGSGSGTDFTLTINSLEAEDAATYYCQNYYDISSNDFGGGTKVEIKRTVAAPSVFIFPPSDEQLKSGTASVVCLLNNFYPREAKVQWKVDNALQSGNSQESVTEQDSKDSTYSLSSTLTLSKADYEKHKVYACEVTHQGLSSPVTKSFNRGEC
modifications: Xaa at position 1 is either glutamine or pyroglutamic acid; Xaa at position 446 is either glycine or absent
notes: Humanized IgG4P (S228P), kappa; also called IgG4SP; Antibody I-4P-AF647 (AF647-labelled form used as stain)
Kd [6]: 2.3 nM
Kd [7]: 5.6 nM
IC50 of inhibition of IC-stimulated IL-8 release, human CD200R-expressing U937 cells [8]: 0.07 µg/mL
IC50 of inhibition of immune-complex induced IL-8 secretion, U937 cells expressing human CD200R (average of 3 experiments) [8]: 0.2 µg/mL

Kd [1]: 0.0489 nM
Kd [2]: 2800 nM
Kd [9]: 900 nM
Kd [3]: 200 nM
Kd [4]: 600 nM
Kd [5]: 500 nM
B2: Antibody I-IgG1 (antibody)
heavy: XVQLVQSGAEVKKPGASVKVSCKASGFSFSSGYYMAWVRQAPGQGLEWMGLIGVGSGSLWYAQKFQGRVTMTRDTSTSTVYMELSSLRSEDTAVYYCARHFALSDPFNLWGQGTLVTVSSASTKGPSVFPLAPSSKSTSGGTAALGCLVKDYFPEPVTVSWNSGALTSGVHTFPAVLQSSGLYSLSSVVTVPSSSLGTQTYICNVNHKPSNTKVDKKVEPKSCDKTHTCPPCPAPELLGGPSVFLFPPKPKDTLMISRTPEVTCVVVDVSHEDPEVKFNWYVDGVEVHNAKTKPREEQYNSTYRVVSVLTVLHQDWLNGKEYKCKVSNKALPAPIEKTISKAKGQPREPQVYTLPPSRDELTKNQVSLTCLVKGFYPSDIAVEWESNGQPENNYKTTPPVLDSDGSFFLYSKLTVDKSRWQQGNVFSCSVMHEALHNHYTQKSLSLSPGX
light: B1 light
modifications: Xaa at position 1 is either glutamine or pyroglutamic acid; Xaa at position 450 is either lysine or absent
notes: Same HCVR, LCVR and LC as Antibody I-4P; IgG1 heavy chain

Source: patent US20220251198A1 (Eli Lilly, published 2022)
